Molecular target: MTs coated with His-mCherry-SEPT9 (10 nM) (bovine (methods) or porcine (Key Resources Table) | human) (UniProt P02550)
Assay: single-molecule TIRF motility assay

fold landing rate against SEPT9-free MTs: 2 fold
Substance: KIF5C(1–560)-L12_(KIF1A)-mCit (from UniProt P56536 1-560) (domain or fragment)
